Laboratory results: US20250222126A1 (ARIZONA BOARD OF REGENTS ON BEHALF OF ARIZONA STATE …, published 2025)
Read-outs that look alike come from different tables or passages of the source.

B1: 1-Arm (designed binder)
LCB1 mini-binder coupled to a DNA handle that is hybridised to one arm of a 3-helix-bundle DNA nanostructure: DKEWILQKIYEIMRLLDELGHAEASMRVSDLIYEFMKKGDERLLEEAERLLEEVER
B2: 2-Arm (designed binder)
LCB1 mini-binder coupled to a DNA handle that is hybridised to an arm of a 3-helix-bundle DNA nanostructure: B1 LCB1 mini-binder coupled to a DNA handle that is hybridised to one arm of a 3-helix-bundle DNA nanostructure
B3: Tri-pdbody (designed binder)
LCB1 mini-binder coupled to a DNA handle that is hybridised to an arm of a 3-helix-bundle DNA nanostructure: B1 LCB1 mini-binder coupled to a DNA handle that is hybridised to one arm of a 3-helix-bundle DNA nanostructure
notes: also called 3-Arm; 3arm

How the values were obtained:
Spike Delta [1] = target: Spike Delta (SARS-CoV-2)
Spike Delta [2] = target: T1, Spike Delta (SARS-CoV-2); assay: SPR, Delta spike as solid phase [panel C]
T1 construct: also called Delta spike; delta spike protein

| Binder | Kd (Spike Delta [1]) | Kd (Spike Delta [2]) |
| --- | --- | --- |
| B1 | 0.14 nM | – |
| B2 | 0.14 nM | – |
| B3 | 0.1 nM | 0.216 nM |
